Target: IL2Rαβγ, the high affinity IL-2 receptor, on human Treg cells (human) (UniProt P01589)
Experiment: cell-based or functional assay

IL2Rαβγ, the high affinity IL-2 receptor, on human Treg cells (human), sequence (P01589 22-272, chain 1 of 3): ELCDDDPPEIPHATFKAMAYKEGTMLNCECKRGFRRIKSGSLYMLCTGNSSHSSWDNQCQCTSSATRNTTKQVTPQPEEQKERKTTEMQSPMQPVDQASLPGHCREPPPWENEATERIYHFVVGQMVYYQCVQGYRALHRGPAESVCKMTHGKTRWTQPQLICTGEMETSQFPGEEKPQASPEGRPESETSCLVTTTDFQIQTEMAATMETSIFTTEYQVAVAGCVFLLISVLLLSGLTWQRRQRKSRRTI
IL2Rαβγ, the high affinity IL-2 receptor, on human Treg cells (human), sequence (P14784 27-551, chain 2 of 3, further chain): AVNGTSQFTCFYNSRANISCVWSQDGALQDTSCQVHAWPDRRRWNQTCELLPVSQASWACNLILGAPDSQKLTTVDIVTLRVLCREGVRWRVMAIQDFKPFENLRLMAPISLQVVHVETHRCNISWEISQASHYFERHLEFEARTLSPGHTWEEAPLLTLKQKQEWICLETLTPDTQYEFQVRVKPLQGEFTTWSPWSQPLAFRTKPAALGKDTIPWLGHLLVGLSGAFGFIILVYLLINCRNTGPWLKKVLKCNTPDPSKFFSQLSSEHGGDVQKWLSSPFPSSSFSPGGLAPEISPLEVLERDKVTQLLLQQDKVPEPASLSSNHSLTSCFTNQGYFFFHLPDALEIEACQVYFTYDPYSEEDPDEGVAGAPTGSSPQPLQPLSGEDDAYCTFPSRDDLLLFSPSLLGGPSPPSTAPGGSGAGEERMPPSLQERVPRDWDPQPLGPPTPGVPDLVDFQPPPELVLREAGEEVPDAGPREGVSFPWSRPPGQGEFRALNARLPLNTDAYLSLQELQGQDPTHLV
IL2Rαβγ, the high affinity IL-2 receptor, on human Treg cells (human), sequence (P31785 23-369, chain 3 of 3, further chain): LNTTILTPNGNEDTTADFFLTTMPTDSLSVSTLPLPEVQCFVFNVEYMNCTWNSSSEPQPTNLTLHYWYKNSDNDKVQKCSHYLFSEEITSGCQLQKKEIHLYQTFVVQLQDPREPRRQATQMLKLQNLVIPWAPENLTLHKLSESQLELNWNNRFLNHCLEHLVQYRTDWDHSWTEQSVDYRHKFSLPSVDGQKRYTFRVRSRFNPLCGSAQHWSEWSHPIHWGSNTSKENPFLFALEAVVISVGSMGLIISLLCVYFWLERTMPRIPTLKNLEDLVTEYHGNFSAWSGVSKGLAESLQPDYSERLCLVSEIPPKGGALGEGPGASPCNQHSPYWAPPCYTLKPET

Percentage of pSTAT5+ cells, Treg cells in human PBMC, 10^-8 M protein: 99.9%
Substance: N88R/IL2 (from UniProt P60568 21-153) (ligand)
